Drawing on the supplement of paper PMC10065799, “High-throughput profiling of sequence recognition by tyrosine kinases and SH2 domains using bacterial peptide display” (eLife, 2023), this text covers SH2 binding enrichment and phosphorylation enrichment for eight sequences.

The target in one data set is c-Src SH2. Description: SH2 binding enrichment of the phosphorylated peptide, bacterial display (enrichment ratio); higher = better substrate or ligand; peptides without Tyr show the background.
For a further data set, the target named is Grb2 SH2 (UniProt P62993). The description is as above.
Sequence of Grb2 SH2 (P62993 whole entry, looked up): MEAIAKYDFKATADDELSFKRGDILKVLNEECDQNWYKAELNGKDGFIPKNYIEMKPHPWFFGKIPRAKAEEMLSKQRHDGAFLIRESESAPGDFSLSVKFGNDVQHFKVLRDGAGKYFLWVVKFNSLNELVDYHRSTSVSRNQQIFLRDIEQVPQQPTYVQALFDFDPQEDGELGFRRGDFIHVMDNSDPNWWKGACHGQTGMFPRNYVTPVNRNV
The target in another data set is SHP2-C SH2. Described as above.
A further data set deals with Fer (mouse). Description: phosphorylation enrichment, bacterial display (enrichment ratio); higher = better substrate or ligand; peptides without Tyr show the background.
A further data set concerns the target EPHB2 (UniProt P29323). The description is as above.
For a further data set, the target named is Fyn (UniProt P06241). Described as above.
The next data set addresses MERTK (UniProt Q12866). The data set is described as above.
The subject of the next data set is c-Src. Described as above.
The next data set concerns c-Abl (mouse). Described as above.
A further data set has as its target FGFR3 (UniProt P22607). The description is as above.
Another data set has as its target Jak2 (UniProt O60674). Described as above.
The target of a further data set is Fes (UniProt P07332). Described as above.
Sequence of Fes (P07332 whole entry, looked up): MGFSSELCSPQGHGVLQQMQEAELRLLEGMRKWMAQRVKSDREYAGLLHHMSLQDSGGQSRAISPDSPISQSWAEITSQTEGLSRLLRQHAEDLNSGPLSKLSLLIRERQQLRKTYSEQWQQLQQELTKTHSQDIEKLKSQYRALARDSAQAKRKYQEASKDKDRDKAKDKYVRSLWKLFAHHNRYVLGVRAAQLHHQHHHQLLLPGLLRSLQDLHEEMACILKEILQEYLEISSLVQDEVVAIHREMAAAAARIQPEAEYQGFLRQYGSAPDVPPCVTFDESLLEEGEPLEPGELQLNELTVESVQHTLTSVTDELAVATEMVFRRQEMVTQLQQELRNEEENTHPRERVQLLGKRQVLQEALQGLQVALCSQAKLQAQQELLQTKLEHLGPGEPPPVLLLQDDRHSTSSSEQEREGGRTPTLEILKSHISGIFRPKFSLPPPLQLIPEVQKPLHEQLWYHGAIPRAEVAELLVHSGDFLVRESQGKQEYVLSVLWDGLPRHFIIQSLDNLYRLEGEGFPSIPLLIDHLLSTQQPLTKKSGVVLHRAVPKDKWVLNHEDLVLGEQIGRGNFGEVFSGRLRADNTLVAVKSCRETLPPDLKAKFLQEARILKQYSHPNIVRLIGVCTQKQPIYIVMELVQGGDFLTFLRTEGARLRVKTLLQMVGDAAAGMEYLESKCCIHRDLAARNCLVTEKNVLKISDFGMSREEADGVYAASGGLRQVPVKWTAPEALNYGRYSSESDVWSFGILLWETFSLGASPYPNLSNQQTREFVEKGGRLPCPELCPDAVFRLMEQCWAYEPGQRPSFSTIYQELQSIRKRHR
A further data set deals with Hck (UniProt P08631). The description is as above.
The target of another data set is EPHB1 (UniProt P54762). The description is as above.
Sequence of EPHB1 (P54762 whole entry, looked up): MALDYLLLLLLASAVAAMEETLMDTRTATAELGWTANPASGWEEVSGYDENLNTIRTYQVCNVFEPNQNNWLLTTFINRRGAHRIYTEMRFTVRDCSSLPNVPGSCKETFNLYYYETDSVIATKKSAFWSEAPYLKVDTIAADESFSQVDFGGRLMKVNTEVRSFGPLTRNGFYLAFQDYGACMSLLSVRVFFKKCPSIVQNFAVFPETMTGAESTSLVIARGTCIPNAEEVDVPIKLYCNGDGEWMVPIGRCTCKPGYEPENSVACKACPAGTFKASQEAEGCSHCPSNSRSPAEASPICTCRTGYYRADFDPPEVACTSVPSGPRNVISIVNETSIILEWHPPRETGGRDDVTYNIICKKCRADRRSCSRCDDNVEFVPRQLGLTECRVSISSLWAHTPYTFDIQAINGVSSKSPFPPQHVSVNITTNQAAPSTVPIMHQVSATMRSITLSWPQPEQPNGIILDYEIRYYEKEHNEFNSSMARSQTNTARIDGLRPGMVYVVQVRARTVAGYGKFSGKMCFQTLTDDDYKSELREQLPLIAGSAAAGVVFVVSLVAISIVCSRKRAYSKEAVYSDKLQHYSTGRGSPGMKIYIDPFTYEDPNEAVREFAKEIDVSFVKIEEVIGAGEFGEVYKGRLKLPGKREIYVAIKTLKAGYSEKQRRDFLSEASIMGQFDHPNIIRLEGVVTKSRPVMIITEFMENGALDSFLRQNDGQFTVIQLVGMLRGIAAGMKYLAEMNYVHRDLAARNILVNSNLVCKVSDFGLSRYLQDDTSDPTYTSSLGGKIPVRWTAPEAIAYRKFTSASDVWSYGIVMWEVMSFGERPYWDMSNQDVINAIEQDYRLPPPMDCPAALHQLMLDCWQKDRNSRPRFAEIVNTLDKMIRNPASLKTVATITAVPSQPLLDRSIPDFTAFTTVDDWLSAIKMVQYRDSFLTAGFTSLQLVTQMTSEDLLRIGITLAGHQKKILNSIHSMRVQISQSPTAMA
In a further data set the test system is AncSZ. The description is as above.
The target in another data set is FGFR1 (UniProt P11362). The data set is described as above.
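Throughout, for SH2 binding enrichment of the phosphorylated peptide, bacterial display: peptide library displayed on the E. coli surface as eCPX fusions, selected cells deep-sequenced, score is each peptide's frequency after selection divided by its frequency in the input.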
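Throughout, for phosphorylation enrichment, bacterial display: 11-residue human phosphosite peptides and single-mutation variants displayed on the E. coli surface, counted by deep sequencing, each peptide's frequency after selection divided by its frequency in the unselected input library; frequency after pTyr selection over input frequency; kinase dosed for 20-30% of maximal phosphorylation in three min.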

Sequence of Jak2 (O60674 whole entry, looked up): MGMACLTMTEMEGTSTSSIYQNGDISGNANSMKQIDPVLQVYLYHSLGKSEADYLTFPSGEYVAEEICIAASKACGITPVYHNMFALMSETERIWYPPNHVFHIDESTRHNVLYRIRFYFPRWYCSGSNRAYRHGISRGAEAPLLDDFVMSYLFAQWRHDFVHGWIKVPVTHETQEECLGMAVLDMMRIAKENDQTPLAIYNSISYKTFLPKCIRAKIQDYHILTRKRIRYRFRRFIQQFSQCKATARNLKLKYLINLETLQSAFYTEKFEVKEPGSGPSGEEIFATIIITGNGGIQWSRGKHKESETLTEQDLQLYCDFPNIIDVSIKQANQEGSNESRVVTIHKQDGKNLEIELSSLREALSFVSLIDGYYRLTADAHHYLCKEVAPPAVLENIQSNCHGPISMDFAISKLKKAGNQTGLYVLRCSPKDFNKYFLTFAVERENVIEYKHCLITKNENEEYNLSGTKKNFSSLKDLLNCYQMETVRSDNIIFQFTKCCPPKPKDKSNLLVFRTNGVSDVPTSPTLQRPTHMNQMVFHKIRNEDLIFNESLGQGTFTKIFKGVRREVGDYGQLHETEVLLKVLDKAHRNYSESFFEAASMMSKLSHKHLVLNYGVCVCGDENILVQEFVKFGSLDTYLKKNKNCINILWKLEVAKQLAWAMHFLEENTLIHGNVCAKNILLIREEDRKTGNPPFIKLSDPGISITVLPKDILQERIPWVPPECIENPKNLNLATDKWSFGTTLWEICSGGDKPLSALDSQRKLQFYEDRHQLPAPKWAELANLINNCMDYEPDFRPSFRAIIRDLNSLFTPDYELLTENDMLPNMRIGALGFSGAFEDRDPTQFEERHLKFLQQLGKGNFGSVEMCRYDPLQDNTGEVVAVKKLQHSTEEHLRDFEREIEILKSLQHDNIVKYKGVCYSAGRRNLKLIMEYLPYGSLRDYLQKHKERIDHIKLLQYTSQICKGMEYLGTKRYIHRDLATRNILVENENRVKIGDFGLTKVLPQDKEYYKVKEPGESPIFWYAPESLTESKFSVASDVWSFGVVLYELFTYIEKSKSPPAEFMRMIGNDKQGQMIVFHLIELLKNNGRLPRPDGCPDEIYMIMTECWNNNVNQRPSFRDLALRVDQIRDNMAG
Sequence of FGFR3 (P22607 whole entry, looked up): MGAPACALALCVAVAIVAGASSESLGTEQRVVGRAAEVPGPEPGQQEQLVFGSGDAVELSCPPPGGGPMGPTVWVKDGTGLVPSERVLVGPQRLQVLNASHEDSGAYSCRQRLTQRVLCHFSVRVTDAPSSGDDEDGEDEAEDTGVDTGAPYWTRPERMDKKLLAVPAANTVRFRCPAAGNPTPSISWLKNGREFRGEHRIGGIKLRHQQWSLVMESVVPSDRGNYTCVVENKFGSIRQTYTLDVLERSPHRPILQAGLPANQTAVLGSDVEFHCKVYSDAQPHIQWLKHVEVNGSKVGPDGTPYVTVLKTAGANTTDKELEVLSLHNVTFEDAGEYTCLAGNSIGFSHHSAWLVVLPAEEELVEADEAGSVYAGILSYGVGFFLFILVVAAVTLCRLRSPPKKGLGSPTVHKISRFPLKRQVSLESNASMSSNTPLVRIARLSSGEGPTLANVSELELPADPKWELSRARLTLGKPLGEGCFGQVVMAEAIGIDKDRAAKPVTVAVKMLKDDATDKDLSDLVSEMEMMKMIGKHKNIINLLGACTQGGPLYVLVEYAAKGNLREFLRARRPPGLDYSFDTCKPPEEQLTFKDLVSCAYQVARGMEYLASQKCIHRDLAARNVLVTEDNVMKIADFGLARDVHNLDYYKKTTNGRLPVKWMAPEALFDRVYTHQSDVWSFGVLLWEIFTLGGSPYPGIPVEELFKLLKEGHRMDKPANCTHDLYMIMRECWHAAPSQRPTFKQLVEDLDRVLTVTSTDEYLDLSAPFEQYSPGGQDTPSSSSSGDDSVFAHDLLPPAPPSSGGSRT
Sequence of MERTK (Q12866 whole entry, looked up): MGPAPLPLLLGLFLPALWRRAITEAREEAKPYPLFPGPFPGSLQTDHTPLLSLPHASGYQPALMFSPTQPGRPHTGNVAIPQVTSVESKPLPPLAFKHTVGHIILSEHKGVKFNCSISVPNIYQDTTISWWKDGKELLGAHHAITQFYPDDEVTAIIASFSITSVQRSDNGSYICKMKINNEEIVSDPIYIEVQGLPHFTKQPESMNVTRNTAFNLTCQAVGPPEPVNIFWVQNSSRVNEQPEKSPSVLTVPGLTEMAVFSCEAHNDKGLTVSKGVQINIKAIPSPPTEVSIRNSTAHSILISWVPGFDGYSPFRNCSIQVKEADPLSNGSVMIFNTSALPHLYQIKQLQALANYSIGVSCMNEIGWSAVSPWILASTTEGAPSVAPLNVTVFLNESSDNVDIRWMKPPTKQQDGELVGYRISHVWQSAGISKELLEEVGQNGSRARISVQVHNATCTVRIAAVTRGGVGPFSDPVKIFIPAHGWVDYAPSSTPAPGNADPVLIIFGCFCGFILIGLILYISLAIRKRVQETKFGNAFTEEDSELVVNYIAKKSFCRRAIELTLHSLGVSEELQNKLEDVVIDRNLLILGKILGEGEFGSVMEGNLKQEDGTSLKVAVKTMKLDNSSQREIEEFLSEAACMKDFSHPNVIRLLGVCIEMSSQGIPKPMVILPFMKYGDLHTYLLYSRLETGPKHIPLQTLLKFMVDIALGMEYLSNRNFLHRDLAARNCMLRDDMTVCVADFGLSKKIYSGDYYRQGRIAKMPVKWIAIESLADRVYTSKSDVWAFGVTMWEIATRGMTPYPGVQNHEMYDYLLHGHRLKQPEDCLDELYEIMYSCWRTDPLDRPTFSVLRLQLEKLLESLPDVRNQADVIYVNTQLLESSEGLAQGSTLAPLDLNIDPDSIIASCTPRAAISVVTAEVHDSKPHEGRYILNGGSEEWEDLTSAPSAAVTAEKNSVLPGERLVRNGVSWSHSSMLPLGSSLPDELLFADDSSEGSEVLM

Turning to EIVYVYVKKRS [DNAI2_Y7], the SH2 binding enrichment with c-Src SH2 was determined as 0.483; with Grb2 SH2, 0.687; with SHP2-C SH2, 0.805. Further, the phosphorylation enrichment came out at 0.465 in the data set on Fer (mouse); 0.57 with EPHB2; 0.354 with Fyn; 0.377 in the data set with MERTK; 0.399 with c-Src; 0.64 with c-Abl (mouse). Further, the phosphorylation enrichment with FGFR3 was 0.675; with Jak2 it was 1.01; with Fes it was 1.1; with Hck, 0.538; with EPHB1 it was 0.555; in the data set with AncSZ it was 1.29. The phosphorylation enrichment in the data set with FGFR1 was 0.52.
For EKEKKYMLPLD [DNM2_Y563], the SH2 binding enrichment is 0.534 with c-Src SH2, 0.902 with Grb2 SH2 and 0.841 in the data set with SHP2-C SH2. For the same sequence, the phosphorylation enrichment was 0.489 in the data set with Fer (mouse); 0.473 with EPHB2; 0.625 with Fyn; 0.449 with MERTK; 0.452 in the data set with c-Src; 0.589 with c-Abl (mouse). Further, the phosphorylation enrichment with FGFR3 came to 0.466; with Jak2, 0.849; with Fes, 0.796; with Hck, 0.591; with EPHB1 it was 0.526; in the data set on AncSZ it was 0.885. In addition, in the data set with FGFR1, the phosphorylation enrichment was 0.412.
With EKEQNYDLTEV [ECD_Y448], the values for the SH2 binding enrichment in the data set with c-Src SH2, with Grb2 SH2 and in the data set with SHP2-C SH2 were 0.704, 0.962 and 0.802, respectively. Also, the phosphorylation enrichment in the data set with Fer (mouse) was 0.694; in the data set with EPHB2, 0.675; in the data set with Fyn, 0.544; with MERTK, 0.593; in the data set on c-Src it was 0.466; in the data set with c-Abl (mouse) it was 0.737. Further, the phosphorylation enrichment stood at 0.73 with FGFR3; 1.06 with Jak2; 1.31 in the data set with Fes; 0.666 in the data set with Hck; 0.569 with EPHB1; 1.31 in the data set on AncSZ. Also, the phosphorylation enrichment in the data set with FGFR1 turned out to be 0.655.
Take EKKDIYKAGEQ [CFH_Y1008_V1007I]: the figures for the SH2 binding enrichment in the data set with c-Src SH2, with Grb2 SH2 and with SHP2-C SH2 were 0.365, 0.826 and 0.648, respectively. For the same sequence, the phosphorylation enrichment with Fer (mouse) is 0.362; with EPHB2 it was 0.424; with Fyn, 0.341; in the data set with MERTK it was 0.362; in the data set on c-Src it was 0.431; in the data set with c-Abl (mouse), 0.5. In addition, the phosphorylation enrichment was found to be 0.364 in the data set with FGFR3; 0.488 with Jak2; 0.696 in the data set with Fes; 0.373 with Hck; 0.353 with EPHB1; 0.493 in the data set on AncSZ. Moreover, the phosphorylation enrichment in the data set with FGFR1 is 0.327.
For EKLQQYLAPGM [EPHB3_Y600_I601L], the results for the SH2 binding enrichment with c-Src SH2, with Grb2 SH2 and in the data set with SHP2-C SH2 were 0.564, 0.745 and 0.559, respectively. Also, the phosphorylation enrichment was found to be 0.54 in the data set on Fer (mouse); 0.489 with EPHB2; 0.398 in the data set with Fyn; 0.487 with MERTK; 0.347 in the data set on c-Src; 0.732 in the data set on c-Abl (mouse). The phosphorylation enrichment in the data set with FGFR3 was 0.493; with Jak2 it was 0.57; with Fes it was 0.863; in the data set with Hck, 0.48; in the data set with EPHB1, 0.408; in the data set on AncSZ it was 0.68. For the same sequence, the phosphorylation enrichment with FGFR1 is 0.466.
For EKQARYEIVVE [CDH5_Y223], the SH2 binding enrichment was found to be 11 with c-Src SH2, 0.856 with Grb2 SH2 and 0.666 with SHP2-C SH2. In addition, the phosphorylation enrichment in the data set with Fer (mouse) amounted to 0.466; with EPHB2 it was 0.57; with Fyn, 0.433; in the data set with MERTK it was 0.484; in the data set on c-Src it was 0.477; in the data set with c-Abl (mouse), 0.613. Besides, the phosphorylation enrichment with FGFR3 stood at 0.532; with Jak2, 0.846; with Fes, 0.852; with Hck it was 0.486; in the data set with EPHB1 it was 0.65; in the data set on AncSZ, 0.909. In addition, the phosphorylation enrichment with FGFR1 was 0.392.
As to EKSREYDRLYE [PIK3R1_Y463], the SH2 binding enrichment with c-Src SH2 came out at 16.9; with Grb2 SH2 it was 0.966; with SHP2-C SH2, 0.612. The phosphorylation enrichment amounted to 0.711 with Fer (mouse); 0.68 with EPHB2; 0.708 with Fyn; 0.597 with MERTK; 0.587 in the data set with c-Src; 0.938 in the data set with c-Abl (mouse). The phosphorylation enrichment stood at 0.706 with FGFR3; 0.828 with Jak2; 1.09 with Fes; 0.944 in the data set with Hck; 0.663 with EPHB1; 1.32 in the data set with AncSZ. For the same sequence, the phosphorylation enrichment in the data set with FGFR1 amounted to 0.61.
As for ELPEKYSQNIF [PKP2_Y626_YF], the SH2 binding enrichment stood at 0.614 in the data set with c-Src SH2, 0.864 with Grb2 SH2 and 0.711 in the data set with SHP2-C SH2. The phosphorylation enrichment with Fer (mouse) is 0.423; in the data set with EPHB2 it was 0.492; with Fyn, 0.413; in the data set with MERTK it was 0.538; in the data set with c-Src, 0.539; in the data set on c-Abl (mouse) it was 0.605. For the same sequence, the phosphorylation enrichment with FGFR3 was found to be 0.659; with Jak2 it was 1.09; with Fes, 1.05; with Hck, 0.507; with EPHB1, 0.528; in the data set on AncSZ, 0.989. For the same sequence, the phosphorylation enrichment with FGFR1 was 0.579.
